target: recombinant His-tagged CD38 (Homo sapiens, UniProt P28907); experiment: Pepscan-based ELISA of His-tagged CD38 on CD31 peptide arrays; assay type: binding; settings: mimic type BET (β-turn mimic, mP2 CLIPS); sample with the highest signal
Description: Different sets of sCD31 peptides were synthesized according to the following designs. Note that actual order of peptides on mini-cards in some was randomized. • Set #1 • Mimic type: linear • Label: LIN15 • Linear peptides of 15 consecutive amino acid residues in length, derived from the target sequence of sCD31 with an offset of […]. • Set #2 • Mimic type: single loop (mP2 CLIPS) • Label: LOOP7 • Constrained peptides of 9 amino acid residues in length. On positions 2-8 are incorporated 7 consecutive amino acid residues derived from the target sequence of sCD31 with an offset of 1.3 residues. Cys residues were inserted on positions 1 and 9 and joined by mP2 CLIPS in order to create a loop mimic. Native Cys residues, if present, were replaced by Ser residues. • Set #3 • Mimic type: single loop, (mP2 CLIPS) • Label: LOOP15 • Constrained peptides of 17 amino acid residues in length. On positions 2-16 are incorporated 15 consecutive amino acid residues derived from the target sequence of sCD31 with an offset of […]. Cys residues were inserted on positions 1 and 17 and joined by mP2 CLIPS in order to create a loop mimic. Native Cys residues, if present, were replaced by Ser residues. • Set #4 • Mimic type: β-turn peptide mimics (mP2 CLIPS) • Label: BET • β-turn peptide mimics of 22 amino acid residues in length. On positions 2-21 are incorporated 20 consecutive amino acid residues derived from the target sequence of sCD31 with an offset of 1.3 residues. Residues on positions 11 and 12 are replaced by a Pro-Gly motif in order to induce the β-turn formation. Cys residues were inserted on positions 1 and 22 and joined by mP2 CLIPS in order to stabilize the mimic. Native Cys residues, if present, were replaced by Ser residues.
To reconstruct epitopes of sCD31, a library of peptide-based peptide mimics was synthesized using Fmoc-based solid-phase peptide synthesis. An amino functionalized polypropylene support was obtained by grafting with a hydrophilic polymer formulation, followed by reaction with t-butyloxycarbonyl-hexamethylenediamine (BocHMDA) using dicyclohexylcarbodiimide (DCC) with N-hydroxybenzotriazole (HOBt) and subsequent cleavage of the Boc-groups using trifluoroacetic acid (TFA).
Standard Fmoc-peptide synthesis was used to synthesize peptides on the amino-functionalized solid support by custom modified JANUS liquid handling stations (Perkin Elmer).
Synthesis of structural mimics was done using CLIPS technology. CLIPS technology allows to structure peptides into single loops, double loops, triple loops, sheet-like folds, helix-like folds, and combinations thereof. CLIPS templates are coupled to cysteine residues. The side-chains of multiple cysteines in the peptides are coupled to one or two CLIPS templates. For example, a 0.5 mM solution of the P2 CLIPS (2,6-bis(bromomethyl)pyridine) is dissolved in ammonium bicarbonate (20 mM, pH 7.8)/acetonitrile (1:3, v/v). This solution is added onto the peptide arrays. The CLIPS template binds to side-chains of two cysteines as present in the solid-phase bound peptides of the peptide-arrays (455 wells plate with 3-µL wells). The peptide arrays are gently shaken in the solution for 30 to 60 minutes while completely covered in solution.
Finally, the peptide arrays are washed extensively with excess of H2O and sonicated in disrupt-buffer containing 1% SDS / 0.1 % 2,2′-(ethylenedioxy)diethanethiol in PBS (pH 7.2) at 70° C. for 30 minutes, followed by sonication in H2O for another 45 minutes.
The binding of the sample (recombinant His-tagged CD38; 9 µg/mL and 20 µg/mL) to each of the synthesized peptides was tested in a pepscan-based ELISA. The peptide arrays were incubated with primary sample solution (overnight at 4° C.). […]

| Value (binding intensity of His-tagged CD38), BET conformational peptide array | Substance |
| --- | --- |
| 1497 mAU | 10 (CMVKLKREKNPGDQNFVILEFC; Human sCD31 peptide) [compound 10] |
| 943 mAU | 13 (CVESSRISKVPGIVVNITELFC; Human sCD31 peptide) [compound 13] |
| 739 mAU | 14 (CPPANFTIQKPGTIVSQTQDFC; Human sCD31 peptide) [compound 14] |
| 649 mAU | 16 (CSEVLRVKVIPGVDEVQISILC; Human CD31 peptide) [compound 16] |

same assay, conditions: mimic type LIN15; sample with the highest signal (His-tagged CD38 9 or 20 µg/mL)

| Value (binding intensity of His-tagged CD38), LIN15 linear peptide array | Substance |
| --- | --- |
| 1230 mAU | 6 (NSRDQNFVILEFPVE; Human sCD31 peptide) [compound 6] |
| 355 mAU | 30 (KPQHQMLFYKDDVLF) [compound 30] |
| 460 mAU | 32 (QHQMLFYKDDVLFYN) [compound 32] |
| 441 mAU | 33 (HQMLFYKDDVLFYNI) [compound 33] |
| 451 mAU | 36 (MLFYKDDVLFYNISS) [compound 36] |
| 383 mAU | 38 (LFYKDDVLFYNISSM) [compound 38] |
| 440 mAU | 74 (KREKNSRDQNFVILE) [compound 74] |
| 453 mAU | 75 (REKNSRDQNFVILEF) [compound 75] |
| 502 mAU | 77 (KNSRDQNFVILEFPV) [compound 77] |
| 1021 mAU | 78 (RDQNFVILEFPVEEQ) [compound 78] |
| 963 mAU | 80 (DQNFVILEFPVEEQD) [compound 80] |
| 631 mAU | 83 (NFVILEFPVEEQDRV) [compound 83] |
| 168 mAU | 100 (SSRISKVSSIVVNIT) [compound 100] |
| 572 mAU | 101 (RISKVSSIVVNITEL) [compound 101] |
| 642 mAU | 102 (ISKVSSIVVNITELF) [compound 102] |
| 155 mAU | 104 (KVSSIVVNITELFSK) [compound 104] |
| 421 mAU | 120 (NSNDPAVFKDNPTED) [compound 120] |
| 410 mAU | 121 (SNDPAVFKDNPTEDV) [compound 121] |
| 402 mAU | 122 (DPAVFKDNPTEDVEY) [compound 122] |
| 333 mAU | 123 (PAVFKDNPTEDVEYQ) [compound 123] |
| 303 mAU | 124 (VFKDNPTEDVEYQCV) [compound 124] |
| 337 mAU | 168 (KQKASKEQEGEYYCT) [compound 168] |
| 316 mAU | 169 (QKASKEQEGEYYCTA) [compound 169] |
| 400 mAU | 170 (ASKEQEGEYYCTAFN) [compound 170] |
| 454 mAU | 171 (SKEQEGEYYCTAFNR) [compound 171] |
| 340 mAU | 172 (EQEGEYYCTAFNRAN) [compound 172] |

same assay, conditions: mimic type LOOP7 (single loop, mP2 CLIPS); sample with the highest signal

| Value (binding intensity of His-tagged CD38), LOOP7 conformational peptide array | Substance |
| --- | --- |
| 668 mAU | 5 (CSTESYFIC; Human sCD31 peptide) [compound 5] |
| 804 mAU | 167 (CEDVEYQSC) [compound 167] |
| 370 mAU | 173 (CNLTLQSFC) [compound 173] |
| 427 mAU | 174 (CTLQSFADC) [compound 174] |
| 561 mAU | 175 (CLQSFADVC) [compound 175] |
| 413 mAU | 176 (CQSFADVSC) [compound 176] |
| 390 mAU | 177 (CSFADVSTC) [compound 177] |
| 542 mAU | 178 (CMLFYKDDC) [compound 178] |
| 604 mAU | 179 (CLFYKDDVC) [compound 179] |
| 585 mAU | 180 (CYKDDVLFC) [compound 180] |
| 579 mAU | 181 (CKDDVLFYC) [compound 181] |
| 702 mAU | 182 (CDDVLFYNC) [compound 182] |
| 502 mAU | 183 (CVLFYNISC) [compound 183] |
| 339 mAU | 184 (CKSTESYFC) [compound 184] |
| 549 mAU | 185 (CTESYFIPC) [compound 185] |
| 400 mAU | 186 (CSYFIPEVC) [compound 186] |
| 523 mAU | 187 (CYFIPEVRC) [compound 187] |
| 414 mAU | 188 (CFIPEVRIC) [compound 188] |

| Value (binding intensity of His-tagged CD38), LOOP7 conformational peptide array | Substance |
| --- | --- |
| 642 mAU | 189 (CEVRIYDSC) [compound 189] |
| 479 mAU | 190 (CVRIYDSGC) [compound 190] |
| 395 mAU | 191 (CRIYDSGTC) [compound 191] |
| 492 mAU | 192 (CTAEYQVLC) [compound 192] |
| 508 mAU | 193 (CAEYQVLVC) [compound 193] |
| 651 mAU | 194 (CEYQVLVEC) [compound 194] |
| 628 mAU | 195 (CDQNFVILC) [compound 195] |
| 942 mAU | 196 (CQNFVILEC) [compound 196] |
| 527 mAU | 197 (CVILEFPVC) [compound 197] |
| 537 mAU | 198 (CILEFPVEC) [compound 198] |
| 412 mAU | 199 (CLAQEFPEC) [compound 199] |
| 429 mAU | 200 (CAQEFPEIC) [compound 200] |
| 476 mAU | 201 (CQEFPEIIC) [compound 201] |
| 596 mAU | 202 (CFPEIIIQC) [compound 202] |
| 364 mAU | 203 (CSSIVVNIC) [compound 203] |
| 387 mAU | 204 (CSIVVNITC) [compound 204] |
| 630 mAU | 205 (CIVVNITEC) [compound 205] |

same assay, conditions: mimic type LOOP15 (single loop, mP2 CLIPS); sample with the highest signal

| Value (binding intensity of His-tagged CD38), LOOP15 conformational peptide array | Substance |
| --- | --- |
| 1110 mAU | 9 (CRDQNFVILEFPVEEQC; Human sCD31 peptide) [compound 9] |
| 965 mAU | 164 (CNSRDQNFVILEFPVEC) [compound 164] |
